The results in this text go back to article PMC10247859, “Replisome-cohesin interactions provided by the Tof1-Csm3 and Mrc1 cohesion establishment factors” (Chromosoma, 2023).

Common to all, as to conditions: both partners purified
For one test, the target named is T1, Tof1 (S. cerevisiae (budding yeast), UniProt P53840 1-1238).
T1 construct: Tof1, budding yeast; the Tof1 chain of m2; Stood in the cross-linking sample as a chain of the Tof1-Csm3 complex; source: purified as part of Tof1-Csm3, as previously described (Yeeles et al. 2017)
T1 sequence (looked up): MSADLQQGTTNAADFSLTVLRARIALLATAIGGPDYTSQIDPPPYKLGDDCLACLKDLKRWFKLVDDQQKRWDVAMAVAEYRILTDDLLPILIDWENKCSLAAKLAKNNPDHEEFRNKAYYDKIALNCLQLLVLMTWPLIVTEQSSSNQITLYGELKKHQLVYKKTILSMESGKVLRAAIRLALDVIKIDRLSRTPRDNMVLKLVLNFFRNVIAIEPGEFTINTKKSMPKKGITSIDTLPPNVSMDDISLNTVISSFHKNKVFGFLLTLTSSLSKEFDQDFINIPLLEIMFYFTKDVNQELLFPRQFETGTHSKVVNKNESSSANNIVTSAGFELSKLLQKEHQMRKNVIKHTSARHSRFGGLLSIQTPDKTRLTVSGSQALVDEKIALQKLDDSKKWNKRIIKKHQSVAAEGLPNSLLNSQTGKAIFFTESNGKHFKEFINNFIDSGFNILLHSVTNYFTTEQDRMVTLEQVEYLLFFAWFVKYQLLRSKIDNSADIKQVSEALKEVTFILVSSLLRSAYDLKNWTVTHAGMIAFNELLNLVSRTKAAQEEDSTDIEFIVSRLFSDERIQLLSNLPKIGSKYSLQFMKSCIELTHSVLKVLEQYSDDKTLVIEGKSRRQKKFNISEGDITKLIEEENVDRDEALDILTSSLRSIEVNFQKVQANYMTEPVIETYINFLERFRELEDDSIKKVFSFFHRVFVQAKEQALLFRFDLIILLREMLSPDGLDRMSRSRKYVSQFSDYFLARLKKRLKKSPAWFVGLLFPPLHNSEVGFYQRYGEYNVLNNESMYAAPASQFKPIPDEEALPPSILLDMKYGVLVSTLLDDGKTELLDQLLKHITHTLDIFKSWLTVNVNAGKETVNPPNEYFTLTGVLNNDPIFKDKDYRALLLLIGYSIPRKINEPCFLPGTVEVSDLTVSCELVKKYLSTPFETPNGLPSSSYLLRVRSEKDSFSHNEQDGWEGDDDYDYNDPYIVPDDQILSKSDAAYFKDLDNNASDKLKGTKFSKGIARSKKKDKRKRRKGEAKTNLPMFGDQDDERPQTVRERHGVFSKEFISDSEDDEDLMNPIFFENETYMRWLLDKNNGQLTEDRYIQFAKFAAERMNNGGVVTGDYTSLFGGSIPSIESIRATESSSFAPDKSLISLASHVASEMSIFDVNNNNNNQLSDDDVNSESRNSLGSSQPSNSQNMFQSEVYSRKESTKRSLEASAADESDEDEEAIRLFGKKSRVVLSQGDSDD
In words: cross-linking; CLMS with sulfo-SDA; cohesin, Tof1-Csm3 and Chl1 with or without Mrc1 at 300-350 nM, 30 °C 5 min, cross-linker 2 h at 4 °C, UV 365 nm; LC-MS/MS, 1% FDR at residue-pair level; two samples merged.

In another test the target is T2, Tof1-Csm3 complex (S. cerevisiae (budding yeast), UniProt P53840 1-1238; Q04659 1-317).
T2 construct: Tof1, budding yeast; Csm3, budding yeast; Held on calmodulin dynabeads when used as bait; source: purified as previously described (Yeeles et al. 2017)
In words: pull-down; Flag-tagged Chl1 (200-600 nM) held on anti-Flag M2 magnetic beads; Tof1-Csm3 as prey; interaction buffer.

Test [1] addresses T3, cohesin tetramer complex (Smc1-Smc3-Scc1-Scc3) (S. cerevisiae (budding yeast), UniProt P32908 1-1225; P47037 1-1230; Q12158 1-566; P40541 1-1150).
T3 construct: Smc1, cohesin subunit, budding yeast; Smc3, cohesin subunit, budding yeast; Scc1, cohesin subunit, budding yeast; Scc3, cohesin subunit, budding yeast; also called cohesin complex; source: purified as previously described (Minamino et al. 2018): IgG agarose, 3C protease cleavage; copies: + + +
Briefly: pull-down; cohesin tetramer (200-600 nM) held on Protein A dynabeads by anti-Pk antibody (Pk tag on Smc1); 200 nM prey, 30 °C, 5 min; 25 mM HEPES-KOH pH 7.6, 100 mM potassium glutamate, 10 mM magnesium acetate, 0.12% NP-40; SDS elution, Coomassie staining.

T3 sequence (Q12158 whole entry, chain 3 of 2): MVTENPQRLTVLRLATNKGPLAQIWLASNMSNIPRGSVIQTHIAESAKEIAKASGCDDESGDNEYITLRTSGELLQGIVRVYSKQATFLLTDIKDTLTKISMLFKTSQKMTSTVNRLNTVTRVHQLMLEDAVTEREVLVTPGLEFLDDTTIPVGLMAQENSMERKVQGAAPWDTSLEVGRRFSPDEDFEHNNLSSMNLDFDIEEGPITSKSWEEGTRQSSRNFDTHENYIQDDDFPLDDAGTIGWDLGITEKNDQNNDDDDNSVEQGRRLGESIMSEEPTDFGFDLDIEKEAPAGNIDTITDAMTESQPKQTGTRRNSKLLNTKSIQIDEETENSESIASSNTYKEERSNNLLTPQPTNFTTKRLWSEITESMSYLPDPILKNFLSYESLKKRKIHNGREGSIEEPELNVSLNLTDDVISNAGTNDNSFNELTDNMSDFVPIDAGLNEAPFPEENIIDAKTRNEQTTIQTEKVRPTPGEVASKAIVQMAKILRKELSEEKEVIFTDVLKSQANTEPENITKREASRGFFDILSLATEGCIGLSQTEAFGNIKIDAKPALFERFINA
T3 sequence (P40541 whole entry, chain 4 of 2): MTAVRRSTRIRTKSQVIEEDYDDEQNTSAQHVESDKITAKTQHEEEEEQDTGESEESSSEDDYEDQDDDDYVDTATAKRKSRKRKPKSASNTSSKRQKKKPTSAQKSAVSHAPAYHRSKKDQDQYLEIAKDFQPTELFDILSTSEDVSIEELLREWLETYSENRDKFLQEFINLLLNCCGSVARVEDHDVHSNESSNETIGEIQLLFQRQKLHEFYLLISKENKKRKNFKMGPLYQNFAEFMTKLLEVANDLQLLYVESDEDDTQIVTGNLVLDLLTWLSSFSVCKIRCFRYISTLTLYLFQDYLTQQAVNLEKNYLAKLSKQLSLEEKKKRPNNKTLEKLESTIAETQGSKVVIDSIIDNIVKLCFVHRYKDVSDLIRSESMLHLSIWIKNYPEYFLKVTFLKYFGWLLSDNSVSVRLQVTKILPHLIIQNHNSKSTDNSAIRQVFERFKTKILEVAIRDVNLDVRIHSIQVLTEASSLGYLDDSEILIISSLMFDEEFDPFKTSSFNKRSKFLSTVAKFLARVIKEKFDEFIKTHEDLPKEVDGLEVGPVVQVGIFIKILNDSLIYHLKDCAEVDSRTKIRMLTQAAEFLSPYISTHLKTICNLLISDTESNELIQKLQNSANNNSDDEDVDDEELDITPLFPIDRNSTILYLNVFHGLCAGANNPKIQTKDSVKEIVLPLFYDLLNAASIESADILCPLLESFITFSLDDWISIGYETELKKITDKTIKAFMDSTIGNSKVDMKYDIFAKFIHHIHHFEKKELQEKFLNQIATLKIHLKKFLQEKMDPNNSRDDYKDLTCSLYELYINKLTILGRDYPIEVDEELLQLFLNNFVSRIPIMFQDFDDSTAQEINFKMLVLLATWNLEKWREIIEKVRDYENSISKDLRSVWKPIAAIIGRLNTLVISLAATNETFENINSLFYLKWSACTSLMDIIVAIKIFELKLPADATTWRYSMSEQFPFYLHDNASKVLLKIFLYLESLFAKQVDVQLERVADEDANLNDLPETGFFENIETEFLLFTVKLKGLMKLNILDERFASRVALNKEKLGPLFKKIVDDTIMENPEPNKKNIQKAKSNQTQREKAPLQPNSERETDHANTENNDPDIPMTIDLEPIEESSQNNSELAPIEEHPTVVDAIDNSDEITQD

B1: Csm3 (natural protein, S. cerevisiae (budding yeast), UniProt Q04659 1-317, looked up)
chain: MDQDFDSLLLGFNDSDSVQKDPTVPNGLDGSVVDPTIADPTAITARKRRPQVKLTAEKLLSDKGLPYVLKNAHKRIRISSKKNSYDNLSNIIQFYQLWAHELFPKAKFKDFMKICQTVGKTDPVLREYRVSLFRDEMGMSFDVGTRETGQDLERQSPMVEEHVTSAEERPIVADSFAQDKRNVNNVDYDNDEDDDIYHLSYRNRRGRVLDERGNNETVLNNVVPPKEDLDALLKTFRVQGPVGLEENEKKLLLGWLDAHRKMEKGSMTEEDVQLIQSLEEWEMNDIEGQHTHYDLLPGGDEFGVDQDELDAMKEMGF
notes: Csm3, budding yeast; the Csm3 chain of m2; Stood in the cross-linking sample as a chain of the Tof1-Csm3 complex; source: purified as part of Tof1-Csm3, as previously described (Yeeles et al. 2017)
Regarding B1, in the test with Tof1, the binding result is listed as “binds”.

B2: Chl1 (natural protein, S. cerevisiae (budding yeast), UniProt P22516 1-861, looked up)
chain: MDKKEYSETFYHPYKPYDIQVQLMETVYRVLSEGKKIAILESPTGTGKTLSLICATMTWLRMNKADIFTRMETNIKTNEDDSENLSDDEPDWVIDTYRKSVLQEKVDLLNDYEKHLNEINTTSCKQLKTMCDLDKEHGRYKSVDPLRKKRKGARHLDVSLEEQDFIPRPYESDSENNDTSKSTRGGRISDKDYKLSELNSQIITLLDKIDGKVSRDPNNGDRFDVTNQNPVKIYYASRTYSQLGQFTSQLRLPSFPSSFRDKVPDEKVKYLPLASKKQLCINPKVMKWKTLEAINDACADLRHSKEGCIFYQNTNEWRHCPDTLALRDMIFSEIQDIEDLVPLGKSLGICPYYASREALPIAEVVTLPYQYLLSESTRSSLQINLENSIVIIDEAHNLIETINSIYSSQISLEDLKNCHKGIVTYFNKFKSRLNPGNRVNLLKLNSLLMTLIQFIVKNFKKIGQEIDPNDMFTGSNIDTLNIHKLLRYIKVSKIAYKIDTYNQALKEEESSKNENPIKETHKKSVSSQPLLFKVSQFLYCLTNLTSEGQFFFEKNYSIKYMLLEPSKPFESILNQAKCVVLAGGTMEPMSEFLSNLLPEVPSEDITTLSCNHVIPKENLQTYITNQPELEFTFEKRMSPSLVNNHLFQFFVDLSKAVPKKGGIVAFFPSYQYLAHVIQCWKQNDRFATLNNVRKIFYEAKDGDDILSGYSDSVAEGRGSLLLAIVGGKLSEGINFQDDLCRAVVMVGLPFPNIFSGELIVKRKHLAAKIMKSGGTEEEASRATKEFMENICMKAVNQSVGRAIRHANDYANIYLLDVRYNRPNFRKKLSRWVQDSINSEHTTHQVISSTRKFFSMRSLNSR
notes: Chl1, budding yeast; codon-optimized ectopic copy; also called Flag-tagged Chl1; Chl1 helicase
Turning to B2, the binding result (with Tof1-Csm3 complex; in test [1]) was “binds” each time.

B3: Smc1 (natural protein, S. cerevisiae (budding yeast), UniProt P32908 1-1225, looked up)
chain: MGRLVGLELSNFKSYRGVTKVGFGESNFTSIIGPNGSGKSNMMDAISFVLGVRSNHLRSNILKDLIYRGVLNDENSDDYDNEGAASSNPQSAYVKAFYQKGNKLVELMRIISRNGDTSYKIDGKTVSYKDYSIFLENENILIKAKNFLVFQGDVEQIAAQSPVELSRMFEEVSGSIQYKKEYEELKEKIEKLSKSATESIKNRRRIHGELKTYKEGINKNEEYRKQLDKKNELQKFQALWQLYHLEQQKEELTDKLSALNSEISSLKGKINNEMKSLQRSKSSFVKESAVISKQKSKLDYIFKDKEKLVSDLRLIKVPQQAAGKRISHIEKRIESLQKDLQRQKTYVERFETQLKVVTRSKEAFEEEIKQSARNYDKFKLNENDLKTYNCLHEKYLTEGGSILEEKIAVLNNDKREIQEELERFNKRADISKRRITEELSITGEKLDTQLNDLRVSLNEKNALHTERLHELKKLQSDIESANNQEYDLNFKLRETLVKIDDLSANQRETMKERKLRENIAMLKRFFPGVKGLVHDLCHPKKEKYGLAVSTILGKNFDSVIVENLTVAQECIAFLKKQRAGTASFIPLDTIETELPTLSLPDSQDYILSINAIDYEPEYEKAMQYVCGDSIICNTLNIAKDLKWKKGIRGKLVTIEGALIHKAGLMTGGISGDANNRWDKEEYQSLMSLKDKLLIQIDELSNGQRSNSIRAREVENSVSLLNSDIANLRTQVTQQKRSLDENRLEIKYHNDLIEKEIQPKITELKKKLDDLENTKDNLVKEKEALQNNIFKEFTSKIGFTIKEYENHSGELMRQQSKELQQLQKQILTVENKLQFETDRLSTTQRRYEKAQKDLENAQVEMKSLEEQEYAIEMKIGSIESKLEEHKNHLDELQKKFVTKQSELNSSEDILEDMNSNLQVLKRERDGIKEDIEKFDLERVTALKNCKISNINIPISSETTIDDLPISSTDNEAITISNSIDINYKGLPKKYKENNTDSARKELEQKIHEVEEILNELQPNARALERYDEAEGRFEVINNETEQLKAEEKKILNQFLKIKKKRKELFEKTFDYVSDHLDAIYRELTKNPNSNVELAGGNASLTIEDEDEPFNAGIKYHATPPLKRFKDMEYLSGGEKTVAALALLFAINSYQPSPFFVLDEVDAALDITNVQRIAAYIRRHRNPDLQFIVISLKNTMFEKSDALVGVYRQQQENSSKIITLDLSNYAE
notes: Smc1, budding yeast; the Smc1 chain of m1; Stood in the cross-linking sample as a chain of cohesin; source: purified as part of cohesin, as previously described (Minamino et al. 2018)
In the case of B3, the binding result with Tof1 is “binds”.

B4: Smc3 (natural protein, S. cerevisiae (budding yeast), UniProt P47037 1-1230, looked up)
chain: MYIKRVIIKGFKTYRNETIIDNFSPHQNVIIGSNGSGKSNFFAAIRFVLSDDYSNLKREERQGLIHQGSGGSVMSASVEIVFHDPDHSMILPSGVLSRGDDEVTIRRTVGLKKDDYQLNDRNVTKGDIVRMLETAGFSMNNPYNIVPQGKIVALTNAKDKERLQLLEDVVGAKSFEVKLKASLKKMEETEQKKIQINKEMGELNSKLSEMEQERKELEKYNELERNRKIYQFTLYDRELNEVINQMERLDGDYNNTVYSSEQYIQELDKREDMIDQVSKKLSSIEASLKIKNATDLQQAKLRESEISQKLTNVNVKIKDVQQQIESNEEQRNLDSATLKEIKSIIEQRKQKLSKILPRYQELTKEEAMYKLQLASLQQKQRDLILKKGEYARFKSKDERDTWIHSEIEELKSSIQNLNELESQLQMDRTSLRKQYSAIDEEIEELIDSINGPDTKGQLEDFDSELIHLKQKLSESLDTRKELWRKEQKLQTVLETLLSDVNQNQRNVNETMSRSLANGIINVKEITEKLKISPESVFGTLGELIKVNDKYKTCAEVIGGNSLFHIVVDTEETATLIMNELYRMKGGRVTFIPLNRLSLDSDVKFPSNTTTQIQFTPLIKKIKYEPRFEKAVKHVFGKTIVVKDLGQGLKLAKKHKLNAITLDGDRADKRGVLTGGYLDQHKRTRLESLKNLNESRSQHKKILEELDFVRNELNDIDTKIDQVNGNIRKVSNDRESVLTNIEVYRTSLNTKKNEKLILEESLNAIILKLEKLNTNRTFAQEKLNTFENDLLQEFDSELSKEEKERLESLTKEISAAHNKLNITSDALEGITTTIDSLNAELESKLIPQENDLESKMSEVGDAFIFGLQDELKELQLEKESVEKQHENAVLELGTVQREIESLIAEETNNKKLLEKANNQQRLLLKKLDNFQKSVEKTMIKKTTLVTRREELQQRIREIGLLPEDALVNDFSDITSDQLLQRLNDMNTEISGLKNVNKRAFENFKKFNERRKDLAERASELDESKDSIQDLIVKLKQQKVNAVDSTFQKVSENFEAVFERLVPRGTAKLIIHRKNDNANDHDESIDVDMDAESNESQNGKDSEIMYTGVSISVSFNSKQNEQLHVEQLSGGQKTVCAIALILAIQMVDPASFYLFDEIDAALDKQYRTAVATLLKELSKNAQFICTTFRTDMLQVADKFFRVKYENKISTVIEVNREEAIGFIRGSNKFAEV
notes: Smc3, budding yeast; the Smc3 chain of m1; Stood in the cross-linking sample as a chain of cohesin; source: purified as part of cohesin, as previously described (Minamino et al. 2018)
As for B4, the binding result in the test with Tof1 is on record as “binds”.
